Source: the supplement of paper PMC7125110
± gives the standard error. Variants at the floor of the assay were thinned out.

B1: glmS ribozyme (parent)
chain: AUAAAAGCGCCAGAACUACAGAAAUGUAGUUGACGAGGAGGAGGUUUAUCGAAUUUUCGGCGGAUGCCUCCAAA

Columns and labels:
Details in all cases: with glucosamine-6-phosphate
glucosamine-6-phosphate [1] = variants of: B1; experiment: self-cleavage kobs at 160 uM GlcN6P; higher = faster cleavage; RNA array
Outline: (§1)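 Over ~14 h at 37 °C, tiles were imaged as glucosamine-6-phosphate (40 μM to 10 mM) in HEPES/KCl/Mg(OAc)2 buffer flowed across sequenced MiSeq chips. The chips carried barcoded ribozyme variants transcribed in situ by E. coli RNA polymerase and tracked with a hybridised Cy3 probe. After normalisation to baseline and to non-cleaving reference variants, one- or two-exponential decay fits of per-tile medians gave kobs. kcat and KM followed from weighted Michaelis–Menten fits across concentrations.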

glucosamine-6-phosphate [2] = variants of: B1; experiment: self-cleavage kobs at 640 uM GlcN6P; higher = faster cleavage; RNA array
Outline: as §1

glucosamine-6-phosphate [3] = variants of: B1; experiment: self-cleavage kobs at 2500 uM GlcN6P; higher = faster cleavage; RNA array
Outline: as §1

glucosamine-6-phosphate [4] = variants of: B1; experiment: self-cleavage kobs at 10000 uM GlcN6P; higher = faster cleavage; RNA array
Outline: as §1

Row | Variant | self-cleavage kobs at 160 uM GlcN6P (glucosamine-6-phosphate [1]) | self-cleavage kobs at 640 uM GlcN6P (glucosamine-6-phosphate [2]) | self-cleavage kobs at 2500 uM GlcN6P (glucosamine-6-phosphate [3]) | self-cleavage kobs at 10000 uM GlcN6P (glucosamine-6-phosphate [4])
1 | G29C A36G G41U | < 1e-05 s⁻¹ | < 1e-05 s⁻¹ | < 1e-05 s⁻¹ | 
2 | A12C U31G U47A | 0.000155 ± 5.6e-05 s⁻¹ | 0.000707 ± 0.00032 s⁻¹ |  | 
3 | G13A G40C C70G | < 1e-05 s⁻¹ | < 1e-05 s⁻¹ | < 1e-05 s⁻¹ | < 1e-05 s⁻¹
4 | C11U A15G C34U U57C C71A | < 1e-05 s⁻¹ | < 1e-05 s⁻¹ | < 1e-05 s⁻¹ | 
5 | C16A G35U G37U U65G | < 1e-05 s⁻¹ | < 1e-05 s⁻¹ |  | 
6 | A14C A15U C70A | 0.000105 ± 3.4e-05 s⁻¹ | 0.000263 ± 5.6e-05 s⁻¹ | 0.000232 ± 8.4e-05 s⁻¹ | 
7 | C11U G29U A39C U54A | < 1e-05 s⁻¹ |  |  | 
8 | G13U G37A A53C G60U C67G | < 1e-05 s⁻¹ | < 1e-05 s⁻¹ | < 1e-05 s⁻¹ | 
9 | U30A G38U U65G C68G | 0.000204 ± 4.9e-05 s⁻¹ | 0.000139 ± 4.3e-05 s⁻¹ | 0.000149 ± 4.5e-05 s⁻¹ | 7.88e-05 ± 1.5e-05 s⁻¹
10 | A15G U55A G62U G63C | < 1e-05 s⁻¹ | < 1e-05 s⁻¹ |  | 
11 | U30G A39U G60U | < 1e-05 s⁻¹ |  | < 1e-05 s⁻¹ | 
12 | A28G C70A | 0.000126 ± 3.7e-05 s⁻¹ | 6.33e-05 ± 2.1e-05 s⁻¹ | 0.000497 ± 0.00012 s⁻¹ | 
13 | A12C A36G U69C | < 1e-05 s⁻¹ |  |  | 
14 | A14C A36G C58U | < 1e-05 s⁻¹ |  |  | 
15 | U30C G40U U65G | < 1e-05 s⁻¹ |  |  | 
16 | A15U G32U A36G G43U U65A C67U | < 1e-05 s⁻¹ | < 1e-05 s⁻¹ |  | 
17 | U31C C34U C71U | < 1e-05 s⁻¹ | < 1e-05 s⁻¹ | < 1e-05 s⁻¹ | 
18 | A12C U56A C67A U69G | 8.14e-05 ± 2.1e-05 s⁻¹ | 0.00447 ± 0.0018 s⁻¹ | 0.000144 ± 4.7e-05 s⁻¹ | 
19 | C16G G35C A39G G60U C61U C68U C71A | < 1e-05 s⁻¹ | < 1e-05 s⁻¹ | < 1e-05 s⁻¹ | 
20 | C16G G44C | < 1e-05 s⁻¹ | < 1e-05 s⁻¹ |  | 
21 | U30C U69A | 5.29e-05 ± 1.5e-05 s⁻¹ | 0.000111 ± 3e-05 s⁻¹ | 5.71e-05 ± 1.2e-05 s⁻¹ | 2.76e-05 ± 6.9e-06 s⁻¹
22 | G29U A33U U54G | < 1e-05 s⁻¹ |  |  | 
23 | C11U C61A C67G | 7.27e-05 ± 2.3e-05 s⁻¹ | 8.2e-05 ± 3.6e-05 s⁻¹ | 7.14e-05 ± 3.3e-05 s⁻¹ | 
24 | A15C U65A | 3.48e-05 ± 1.4e-05 s⁻¹ | 0.000177 ± 2.9e-05 s⁻¹ | 0.000234 ± 5.7e-05 s⁻¹ | 0.000807 ± 0.00016 s⁻¹
25 | G13A G35U G66U C67G | < 1e-05 s⁻¹ |  | < 1e-05 s⁻¹ | 

Row | Variant | self-cleavage kobs at 160 uM GlcN6P (glucosamine-6-phosphate [1]) | self-cleavage kobs at 640 uM GlcN6P (glucosamine-6-phosphate [2]) | self-cleavage kobs at 2500 uM GlcN6P (glucosamine-6-phosphate [3]) | self-cleavage kobs at 10000 uM GlcN6P (glucosamine-6-phosphate [4])
26 | G13U G41C A42U U65C | < 1e-05 s⁻¹ | < 1e-05 s⁻¹ | < 1e-05 s⁻¹ | 
27 | A14C G66A C71U | 0.000171 ± 5.4e-05 s⁻¹ | 0.000399 ± 9.8e-05 s⁻¹ | 0.00114 ± 0.00023 s⁻¹ | 
28 | A12U U56G U57G C58A A64G | 5.96e-05 ± 2.1e-05 s⁻¹ | 0.000137 ± 2.4e-05 s⁻¹ | 5.56e-05 ± 2.7e-05 s⁻¹ | 
29 | G29A A33G | < 1e-05 s⁻¹ | < 1e-05 s⁻¹ | < 1e-05 s⁻¹ | < 1e-05 s⁻¹
30 | C16U A42U C67G | 6.07e-05 ± 1.8e-05 s⁻¹ | 0.000203 ± 6.8e-05 s⁻¹ | 0.000631 ± 0.00021 s⁻¹ | 
31 | C11U C70G | 0.000313 ± 0.00014 s⁻¹ | 9e-05 ± 9.9e-06 s⁻¹ | 0.000104 ± 8.7e-06 s⁻¹ | 6.56e-05 ± 5.5e-06 s⁻¹
32 | A14G U30A G32A C68A | < 1e-05 s⁻¹ |  |  | 
33 | G29U G32U A64U | < 1e-05 s⁻¹ |  |  | 
34 | G13A A64C | < 1e-05 s⁻¹ | < 1e-05 s⁻¹ | < 1e-05 s⁻¹ | < 1e-05 s⁻¹
35 | A12C G51U C58G C61A | < 1e-05 s⁻¹ |  |  | 
36 | A14U A15C A48C U56A C67A | < 1e-05 s⁻¹ |  |  | 
37 | C16G A33C C58G G66A | < 1e-05 s⁻¹ |  | < 1e-05 s⁻¹ | 
38 | G13C A36U | < 1e-05 s⁻¹ | < 1e-05 s⁻¹ | < 1e-05 s⁻¹ | < 1e-05 s⁻¹
39 | U30A G44C | < 1e-05 s⁻¹ |  |  | 
40 | G13U A15U G44A | < 1e-05 s⁻¹ | < 1e-05 s⁻¹ | < 1e-05 s⁻¹ | 
41 | A14C A36C U65G | < 1e-05 s⁻¹ | < 1e-05 s⁻¹ | < 1e-05 s⁻¹ | 
42 | C11U U69A | 5.24e-05 ± 1.6e-05 s⁻¹ | 0.000191 ± 5.6e-05 s⁻¹ | 0.000157 ± 3.2e-05 s⁻¹ | 6.31e-05 ± 1.7e-05 s⁻¹
43 | A12C U56C | 6.31e-05 ± 1.4e-05 s⁻¹ | 0.000455 ± 8.2e-05 s⁻¹ | 0.00111 ± 0.00017 s⁻¹ | 0.00253 ± 0.00077 s⁻¹
44 | C16A A52G G63U G66U | < 1e-05 s⁻¹ | < 1e-05 s⁻¹ |  | 
45 | A14G U49A U56A G62A C71U | < 1e-05 s⁻¹ |  |  | 
46 | A14G A39C G40U U46A A53C | < 1e-05 s⁻¹ |  | < 1e-05 s⁻¹ | 
47 | C16A A33U A36C A39C G43U | < 1e-05 s⁻¹ |  |  | 
48 | C11U A12U C71A | 8.52e-05 ± 2.9e-05 s⁻¹ | 0.000232 ± 4.5e-05 s⁻¹ | 0.000457 ± 8.7e-05 s⁻¹ | 
49 | A15G C58A C70U | 0.000138 ± 2.8e-05 s⁻¹ | 8.95e-05 ± 1.1e-05 s⁻¹ | 0.000182 ± 4.8e-05 s⁻¹ | 0.000281 ± 5.3e-05 s⁻¹
